Test results from patent US20250296959A1, “B7-H3 TARGETING PEPTIDES AND CONSTRUCTS THEREOF” (Mariana Oncology Inc., priority 2024, published 2025).
Starred links: 1 amine or outer side, 2 acyl side, 3 side chain; linkers in the order of their positions; H or OH if unused. Positions of bridges follow the written chain, without caps; N, C: chain ends. Non-standard residues stand in square brackets, D forms with d. Groups on a side chain read outwards from the residue. Primed or numbered codes have the meaning given here. *: point of attachment. Ala(piperidin-4-yl) = O=C([C@H](CC1CCN([*:3])CC1)N[*:1])[*:2]; DOTA = O=C(O)CN1CCN(CC(=O)O)CCN(CC(=O)*)CCN(CC(=O)O)CC1; PipAla = piperidinyl-alanine residue (as named); Trp(5-F) = N[C@@H](Cc1c[nH]c2ccc(F)cc12)C(=O)O; PEG4′ = 4x 3-(2-aminoethoxy)propanoic acid; γGlu = O=C(O)[C@H](CCC(=O)[*:2])N[*:1]; 1Nal = N[C@@H](Cc1cccc2ccccc12)C(=O)O; Ala(4-THP) = N[C@@H](CC1CCOCC1)C(=O)O; Val(3-OH) = CC(C)(O)[C@H](N)C(=O)O; hCha = N[C@@H](CCC1CCCCC1)C(=O)O; 4Pal = N[C@@H](Cc1ccncc1)C(=O)O; Tle = CC(C)(C)[C@H](N)C(=O)O; hLeu = CC(C)CC[C@H](N)C(=O)O; Nle = CCCC[C@H](N)C(=O)O; PEG8′ = not defined here

T1: Biotinylated human 4Ig B7-H3 (human, UniProt Q5ZPR3 29-461, limits assumed, biotinylated (site not stated))
T1 construct: Protein captured on the SA chip for SPR; also called 4lg-B7-H3; B7-H3 isoform 4Ig
T1 sequence: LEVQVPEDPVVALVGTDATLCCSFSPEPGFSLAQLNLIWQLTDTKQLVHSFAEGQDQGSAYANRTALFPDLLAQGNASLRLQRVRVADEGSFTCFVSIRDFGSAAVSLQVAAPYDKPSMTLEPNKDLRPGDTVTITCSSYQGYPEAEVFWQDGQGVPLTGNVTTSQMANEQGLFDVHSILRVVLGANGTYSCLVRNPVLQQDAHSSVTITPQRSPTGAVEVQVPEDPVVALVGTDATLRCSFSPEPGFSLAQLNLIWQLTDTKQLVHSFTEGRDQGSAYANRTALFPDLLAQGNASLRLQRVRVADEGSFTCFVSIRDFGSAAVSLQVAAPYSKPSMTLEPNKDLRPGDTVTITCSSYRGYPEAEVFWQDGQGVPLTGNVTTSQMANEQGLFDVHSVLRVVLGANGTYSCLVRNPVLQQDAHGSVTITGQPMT

T2: B7-H3 on Calu-6 cells (human, UniProt Q5ZPR3 29-534)
T2 construct: whole, on cells
T2 sequence (looked up): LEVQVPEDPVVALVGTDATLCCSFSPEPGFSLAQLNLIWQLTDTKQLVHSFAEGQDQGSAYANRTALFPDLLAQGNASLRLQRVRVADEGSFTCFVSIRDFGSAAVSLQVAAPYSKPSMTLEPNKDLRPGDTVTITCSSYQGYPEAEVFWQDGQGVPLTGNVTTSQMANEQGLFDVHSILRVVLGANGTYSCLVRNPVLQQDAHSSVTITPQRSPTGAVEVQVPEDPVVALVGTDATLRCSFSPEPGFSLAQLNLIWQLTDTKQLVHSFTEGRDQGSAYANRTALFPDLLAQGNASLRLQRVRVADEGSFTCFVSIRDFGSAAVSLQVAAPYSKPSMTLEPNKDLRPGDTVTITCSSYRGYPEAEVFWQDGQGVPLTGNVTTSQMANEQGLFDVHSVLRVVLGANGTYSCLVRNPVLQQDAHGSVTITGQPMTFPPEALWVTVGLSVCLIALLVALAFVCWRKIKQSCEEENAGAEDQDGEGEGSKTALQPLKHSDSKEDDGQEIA


Key:
[1] = target: T1, Biotinylated human 4Ig B7-H3; assay: SPR 37C; C = 10<KD<=100 nM
[2] = target: Biotinylated human 4Ig B7-H3 (human) (UniProt Q5ZPR3); assay: SPR 37C; A = KD<=1.0 nM
[3] = target: T2, B7-H3 on Calu-6 cells; assay: 177Lu-labelled peptide on Calu-6 cells, % cell associated fraction; B = 25<%<=50

Row | Binder | KD [1] | % cell associated fraction [3] | also measured
1 | {DOTA-PEG8′}-[Nle]YCVGKYDVYCWF-NH2 (disulfide 3-11) [Cpd 5] | 10 to 100 nM |  | 
2 | Ac-[hCha]YC[Tle]G[PipAla]([PEG4′-DOTA])[Ala(4-THP)]DVYC[Trp(5-F)]F[Val(3-OH)][dA]-OH (disulfide 3-11 (inferred)) [Cpd 485] |  |  | KD [2]: < 1 nM
3 | Ac-[hLeu]YCIGK(DOTA)[Ala(piperidin-4-yl)]DVYC[Trp(5-F)]F[Val(3-OH)]-NH2 (disulfide 3-11) [Cpd 203] |  | 25 to 50% | 
4 | Ac-[Nle]YCVGKYDVYCWFE[dK](DOTA)-NH2 (disulfide 3-11; SMILES CCCC[C@H](NC(C)=O)C(=O)N[C@@H](Cc1ccc(O)cc1)C(=O)N[C@H]1CSSC[C@@H](C(=O)N[C@@H](Cc2c[nH]c3ccccc23)C(=O)N[C@@H](Cc2ccccc2)C(=O)N[C@@H](CCC(=O)O)C(=O)N[C@H](CCCCNC(=O)CN2CCN(CC(=O)O)CCN(CC(=O)O)CCN(CC(=O)O)CC2)C(N)=O)NC(=O)[C@H](Cc2ccc(O)cc2)NC(=O)[C@H](C(C)C)NC(=O)[C@H](CC(=O)O)NC(=O)[C@H](Cc2ccc(O)cc2)NC(=O)[C@H](CCCCN)NC(=O)CNC(=O)[C@H](C(C)C)NC1=O) [Cpd 29] | 10 to 100 nM |  | 
5 | Ac-[hLeu]YC[Tle]GK([γGlu-DOTA])[4Pal]DVYC[1Nal]FP-NH2 (disulfide 3-11) [Cpd 252] |  | 25 to 50% | 
6 | Ac-[Nle]YCVGKYDVYCWFT-OH (disulfide 3-11) [Cpd 33] | 10 to 100 nM |  | 
